Reference: patent US20060257938A1, “Method of screening for drugs that block ligand binding to a lipid binding protein” (priority 2005, published 2006)

How the values were obtained:
Format in all cases: binding
[1] = Probe fluorescence ratio response to linolenic acid relative to ADIFAB2; settings: response relative to ADIFAB2
Method in brief: (§1)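 Fluorescently labeled rat intestinal FABP variants were read at two emission wavelengths, near the unbound maximum (about 420 to 480 nm) and the FFA-bound maximum (about 495 to 580 nm). R = Fλ1/Fλ2 after subtracting probe-free intensity; ΔR = R+agent − R0, normalized to ADIFAB2 (rI-FABP-L72A).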

[2] = Probe fluorescence ratio response to arachidonic acid relative to ADIFAB2; settings: arachidonic acid; response relative to ADIFAB2
Method in brief: as §1

[3] = Probe fluorescence ratio response to linoleic acid relative to ADIFAB2; settings: response relative to ADIFAB2
Method in brief: as §1

[4] = Probe fluorescence ratio response to stearic acid relative to ADIFAB2; settings: response relative to ADIFAB2
Description: (§2) In an alternate preferred embodiment, the protein is rI-FABP that has Ala substituted for Leu at position 72 (rI-FABP-L72A) with the resulting probe named ADIFAB2. […] Other probes useful in embodiments of the invention are shown in Tables 1-6 and are also described in U.S. application Ser. No. 11/085,792, filed Mar. 21, 2005 which is incorporated herein by reference. The indicated substitutions are with reference to the ADIFAB protein of SEQ ID NO: 2.
(§3) ADIFAB2 also has an altered spectral response, making it especially useful for measurements of FFAu in blood samples (Apple et al, Clinical Proteomics, (2004) 1:41-44, U.S. patent application Ser. No. 10/670,958). The wavelengths at the maximum intensities emitted by these fluorescently-labeled I-FABP's in the absence of FFA is about 420 to 480 nm. The emission wavelengths at the maximum intensities emitted by these fluorescently-labeled I-FABP's with FFA bound are between about 495 to 580 nm. Experiments typically involve measuring the fluorescence response within both emission maxima or at wavelengths for which the effect of interfering molecules such as hemoglobin can be eliminated as described in U.S. application Ser. No. 10/670958 and PCT/US2004/030521 and the calculation of the ratio ‘R’ of the two fluorescence intensities. The baseline value for this ratio, measured in the absence of analyte, is designated R0.
(§4) The intensity ratio (“R” value) is determined as follows. The ratio is calculated using the following formula: R=Fλ1/Fλ2 wherein, Fλ1 is the measured fluorescence intensities (intensity of sample with probe present minus intensity of sample without probe present) at wavelength 1 and Fλ2 is the measured fluorescence intensities (intensity of sample with probe present minus intensity of sample without probe present) at wavelength 2. Then, for a given probe, ΔR, the difference in R value between the measurement in the presence of the test compound (agent) and in the absence of the test compound (agent), is calculated as follows: ΔR=R+agent−R0 In some embodiments, the ΔR value may then be compared to some reference, for example, an agent with a known affinity for a given probe, by ΔR/ΔRreference. Measurements of fluorescence intensities are obtained using standard techniques.

[5] = Probe fluorescence ratio response to palmitoleic acid relative to ADIFAB2; settings: response relative to ADIFAB2
Description: as §2, §3, §4

[6] = Probe fluorescence ratio response to palmitic acid relative to ADIFAB2; settings: response relative to ADIFAB2
Method in brief: as §1

[7] = Probe fluorescence ratio response to oleic acid relative to ADIFAB2; settings: response relative to ADIFAB2
Method in brief: as §1

Molecule | DR/DR LNA [1] | DR/DR AA [2] | DR/DR LA [3] | DR/DR SA [4] | DR/DR POA [5] | DR/DR PA [6] | DR/DR OA [7]
73W 74T (protein, listed as Rattus norvegicus, PEPTIDE (1)...(131) wild-type rat intestinal fatty acid binding protein) AFDGTWKVDRNENYEKFMEKMGINVVKRKLGAHDNLKLTITQEGNKFTVKESSNFRNIDVVFELGVDFAYSLWTGTELTGTWTMEGNKLVGKFKRVDNGKELIAVREISGNELIQTYTYEGVEAKRIFKKE | 3.286 | 1.456 | 2.480 | 0.726 | 5.818 | 3.883 | 1.902
21F 78I 102F 72A (protein, listed as Rattus norvegicus, PEPTIDE (1)...(131) wild-type rat intestinal fatty acid binding protein) AFDGTWKVDRNENYEKFMEKFGINVVKRKLGAHDNLKLTITQEGNKFTVKESSNFRNIDVVFELGVDFAYSAADGTEITGTWTMEGNKLVGKFKRVDNGKEFIAVREISGNELIQTYTYEGVEAKRIFKKE | 3.006 | 4.836 | 2.872 | 2.367 | 2.788 | 2.383 | 3.312
72G 73W 74E (protein, listed as Rattus norvegicus, PEPTIDE (1)...(131) wild-type rat intestinal fatty acid binding protein) AFDGTWKVDRNENYEKFMEKMGINVVKRKLGAHDNLKLTITQEGNKFTVKESSNFRNIDVVFELGVDFAYSGWEGTELTGTWTMEGNKLVGKFKRVDNGKELIAVREISGNELIQTYTYEGVEAKRIFKKE | 5.501 | 4.229 | 5.045 | 0.955 | 6.069 | 3.944 | 2.755
72A 73W 74E (protein, listed as Rattus norvegicus, PEPTIDE (1)...(131) wild-type rat intestinal fatty acid binding protein) AFDGTWKVDRNENYEKFMEKMGINVVKRKLGAHDNLKLTITQEGNKFTVKESSNFRNIDVVFELGVDFAYSAWEGTELTGTWTMEGNKLVGKFKRVDNGKELIAVREISGNELIQTYTYEGVEAKRIFKKE | 5.422 | 4.093 | 4.686 | 1.289 | 6.615 | 4.937 | 3.277
60T 104T 115W 74F 72A (protein, listed as Rattus norvegicus, PEPTIDE (1)...(131) wild-type rat intestinal fatty acid binding protein) AFDGTWKVDRNENYEKFMEKMGINVVKRKLGAHDNLKLTITQEGNKFTVKESSNFRNIDTVFELGVDFAYSAAFGTELTGTWTMEGNKLVGKFKRVDNGKELITVREISGNELIWTYTYEGVEAKRIFKKE | 2.017 | 0.873 | 1.609 | 0.633 | 2.511 | 1.920 | 1.149
72V 73L 74W (protein, listed as Rattus norvegicus, PEPTIDE (1)...(131) wild-type rat intestinal fatty acid binding protein) AFDGTWKVDRNENYEKFMEKMGINVVKRKLGAHDNLKLTITQEGNKFTVKESSNFRNIDVVFELGVDFAYSVLWGTELTGTWTMEGNKLVGKFKRVDNGKELIAVREISGNELIQTYTYEGVEAKRIFKKE | 1.209 | 0.500 | 1.225 | 0.348 | 1.710 | 1.276 | 0.648
